B1: pEAG2300 (hu5c8, IgG4 chimeric hinge + IgG1 CH3, glycosylated) (antibody)
chain 1: QVQLVQSGAEVVKPGASVKLSCKASGYIFTSYYMYWVKQAPGQGLEWIGEINPSNGDTNFNEKFKSKATLTVDKSASTAYMELSSLRSEDTAVYYCTRSDGRNDMDSWGQGTLVTVSSASTKGPSVFPLAPCSRSTSESTAALGCLVKDYFPEPVTVSWNSGALTSGVHTFPAVLQSSGLYSLSSVVTVPSSSLGTKTYTCNVDHKPSNTKVDKRVESKYGPPCPPCPAPPVAGPSVFLFPPKPKDTLMISRTPEVTCVVVDVSQEDPEVQFNWYVDGVEVHNAKTKPREEQFNSTYRVVSVLTVLHQDWLNGKEYKCKVSNKGLPSSIEKTISKAKGQPREPQVYTLPPSRDELTKNQVSLTCLVKGFYPSDIAVEWESNGQPENNYKTTPPVLDSDGSFFLYSKLTVDKSRWQQGNVFSCSVMHEALHNHYTQKSLSLSPG
chain 2: DIVLTQSPATLSVSPGERATISCRASQRVSSSTYSYMHWYQQKPGQPPKLLIKYASNLESGVPARFSGSGSGTDFTLTISSVEPEDFATYYCQHSWEIPPTFGGGTKLEIKRTVAAPSVFIFPPSDEQLKSGTASVVCLLNNFYPREAKVQWKVDNALQSGNSQESVTEQDSKDSTYSLSSTLTLSKADYEKHKVYACEVTHQGLSSPVTKSFNRGEC
B2: IgG4.P T299A (hu5c8 aglycosylated IgG4.P S228P, T299A) (antibody)
chain 1: not shown
chain 2: B1 chain 2
B3: EC300 (hu5c8 IgG4.P S228P, T307P, glycosylated) (antibody)
chain 1: not shown
chain 2: B1 chain 2

Assays:
CD64 (FcγRI) [1] = molecular target: T1, CD64 (FcγRI) (UniProt P12314 16-288, limits assumed); assay: solution affinity SPR: antibody titrated into CD64, inhibition of CD64 binding to immobilized IgG1 MAb; average of two titrations
T1 construct: Soluble Fc receptor used in solution; source and construct not described

CD64 (FcγRI) [2] = molecular target: T1, CD64 (FcγRI); assay: solution affinity SPR: inhibition of CD64 binding to immobilized IgG1 MAb
CD16 (FcγRIIIa V158) = molecular target: T2, CD16 (FcγRIIIa V158) (UniProt P08637 17-208, limits assumed); assay: solution affinity SPR: antibody titrated into CD16, inhibition of CD16 binding to immobilized IgG1 MAb; average of two titrations
T2 construct: V158 allotype as printed; source and construct not described; also called Fc gamma III receptor
T2 sequence (P08637 17-208 F176V limits assumed): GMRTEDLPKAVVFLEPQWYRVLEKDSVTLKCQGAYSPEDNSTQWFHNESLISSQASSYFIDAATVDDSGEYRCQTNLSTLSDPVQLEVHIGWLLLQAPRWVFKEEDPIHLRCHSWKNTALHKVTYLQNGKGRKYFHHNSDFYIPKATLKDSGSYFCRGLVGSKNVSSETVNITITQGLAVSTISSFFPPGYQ

T1 sequence (P12314 16-288 limits assumed): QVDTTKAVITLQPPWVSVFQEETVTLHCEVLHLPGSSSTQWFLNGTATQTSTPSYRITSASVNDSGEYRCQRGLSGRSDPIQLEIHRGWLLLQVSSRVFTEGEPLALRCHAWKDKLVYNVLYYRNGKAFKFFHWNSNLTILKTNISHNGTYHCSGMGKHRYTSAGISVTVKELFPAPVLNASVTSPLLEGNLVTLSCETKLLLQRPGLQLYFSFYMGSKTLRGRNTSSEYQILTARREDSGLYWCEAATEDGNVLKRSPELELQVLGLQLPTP

Row | Binder | IC50 (CD64 (FcγRI) [1]) | IC50 (CD64 (FcγRI) [2]) | IC50 (CD16 (FcγRIIIa V158))
1 | B1 | 3020 µM | – | –
2 | B2 | 739 µM | – | –
3 | B3 | 11.2 µM | ~8 µM | 564 µM

— patent US20120100140A1 (Biogen, published 2012)
